How the values were obtained:
[1] = target: T1, Fragment E (human, UniProt P02671 20-97; P02675 84-152; P02679 27-79, limits assumed); assay: BLI Octet, Example 4, FIG. 5
T1 construct: domain: Fragment E
T1 sequence (looked up) 1: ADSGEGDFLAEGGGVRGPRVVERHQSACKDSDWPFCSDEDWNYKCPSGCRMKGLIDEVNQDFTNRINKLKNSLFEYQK
T1 sequence (looked up) 2: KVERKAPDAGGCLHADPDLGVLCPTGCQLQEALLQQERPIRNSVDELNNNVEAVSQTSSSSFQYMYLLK
T1 sequence (looked up) 3: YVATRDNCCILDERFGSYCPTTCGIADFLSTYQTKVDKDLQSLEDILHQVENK

[2] = target: T2, Fragment E from fibrin (UniProt P02671 36-97; P02675 84-152; P02679 27-88, limits assumed); assay: BLI Octet Red96e, biotinylated antibody on streptavidin tips
T2 construct: domain: Fragment E from fibrin; also called E (Fibrin)
T2 sequence (looked up) 1: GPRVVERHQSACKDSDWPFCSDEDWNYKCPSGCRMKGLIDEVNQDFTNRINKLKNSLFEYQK
T2 sequence (looked up) 2: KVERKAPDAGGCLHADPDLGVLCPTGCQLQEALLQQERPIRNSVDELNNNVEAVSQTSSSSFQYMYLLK
T2 sequence (looked up) 3: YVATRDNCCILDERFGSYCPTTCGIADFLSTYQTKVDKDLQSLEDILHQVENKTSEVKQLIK

[3] = target: T3, Fragment E from fibrinogen (UniProt P02671 20-97; P02675 84-152; P02679 27-79, limits assumed); assay: as above
T3 construct: domain: Fragment E from fibrinogen; also called E (Fibrinogen)
T3 sequence (looked up) 1: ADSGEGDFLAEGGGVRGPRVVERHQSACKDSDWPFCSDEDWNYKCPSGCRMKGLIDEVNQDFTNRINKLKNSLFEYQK
T3 sequence (looked up) 2: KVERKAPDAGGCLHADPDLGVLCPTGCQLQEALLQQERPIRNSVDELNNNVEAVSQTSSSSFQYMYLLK
T3 sequence (looked up) 3: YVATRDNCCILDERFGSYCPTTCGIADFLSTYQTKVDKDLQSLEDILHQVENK

[4] = target: T4, Fibrinogen Fragment Y (human, UniProt P02671 20-225; P02675 73-491; P02679 27-437, limits assumed); assay: BLI Octet Red96e, biotinylated antibody on streptavidin tips; KD grade + = >=10^-8 M
T4 construct: domain: Fibrinogen Fragment Y; Made in-house by digesting purified human fibrinogen with plasmin, then purified by SEC; also called Y (Fibrinogen)
T4 sequence (looked up) 1: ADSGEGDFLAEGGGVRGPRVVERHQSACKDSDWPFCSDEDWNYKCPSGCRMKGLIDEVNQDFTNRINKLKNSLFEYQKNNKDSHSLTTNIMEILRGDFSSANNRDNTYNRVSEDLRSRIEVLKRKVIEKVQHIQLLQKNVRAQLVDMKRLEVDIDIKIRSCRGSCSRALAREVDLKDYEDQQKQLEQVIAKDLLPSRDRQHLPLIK
T4 sequence (looked up) 2: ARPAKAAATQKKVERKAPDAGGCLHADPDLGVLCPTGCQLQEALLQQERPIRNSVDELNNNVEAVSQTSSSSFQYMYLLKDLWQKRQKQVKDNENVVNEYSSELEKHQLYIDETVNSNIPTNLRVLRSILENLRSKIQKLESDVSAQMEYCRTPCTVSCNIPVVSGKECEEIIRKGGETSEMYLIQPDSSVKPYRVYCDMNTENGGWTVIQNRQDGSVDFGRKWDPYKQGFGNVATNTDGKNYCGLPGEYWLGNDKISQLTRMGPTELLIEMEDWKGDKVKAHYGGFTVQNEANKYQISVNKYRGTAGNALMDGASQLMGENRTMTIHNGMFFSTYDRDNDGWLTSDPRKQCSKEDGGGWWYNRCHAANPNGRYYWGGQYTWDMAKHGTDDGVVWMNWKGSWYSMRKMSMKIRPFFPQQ
T4 sequence (looked up) 3: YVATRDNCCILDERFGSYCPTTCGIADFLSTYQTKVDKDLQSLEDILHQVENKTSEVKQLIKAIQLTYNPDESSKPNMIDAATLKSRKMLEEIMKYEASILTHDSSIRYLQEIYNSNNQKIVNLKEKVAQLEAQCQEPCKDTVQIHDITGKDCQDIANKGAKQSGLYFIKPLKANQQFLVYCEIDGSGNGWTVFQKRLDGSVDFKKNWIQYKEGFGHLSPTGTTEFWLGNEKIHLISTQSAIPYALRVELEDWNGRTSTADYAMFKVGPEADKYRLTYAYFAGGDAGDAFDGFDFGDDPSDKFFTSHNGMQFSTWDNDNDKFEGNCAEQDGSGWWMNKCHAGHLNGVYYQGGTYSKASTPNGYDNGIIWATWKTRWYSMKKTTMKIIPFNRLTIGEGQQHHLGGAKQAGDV
Experimental: (§1) The same set of mAbs were subjected to binding studies with fibrinogen, D-Dimer, and purified fibrin and fibrinogen fragments (see Table 2) using the BLI Octet Red96e system from Sartorius. KD was measured by loading biotinylated antibody samples on streptavidin BLI tips and introducing serial dilutions of prepared fragments. […] The experiments were conducted at room temperature and pressure.

[5] = target: T5, Fibrinogen Fragment D (human, UniProt P02671 124-216; P02675 164-491; P02679 89-437, limits assumed); assay: as above
T5 construct: domain: Fibrinogen Fragment D; Made in-house by digesting purified human fibrinogen with plasmin, then purified by SEC; also called fragment D from fibrinogen; D (Fibrinogen)
T5 sequence (looked up) 1: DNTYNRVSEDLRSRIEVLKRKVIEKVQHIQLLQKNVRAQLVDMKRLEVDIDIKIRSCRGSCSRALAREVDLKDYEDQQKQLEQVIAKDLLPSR
T5 sequence (looked up) 2: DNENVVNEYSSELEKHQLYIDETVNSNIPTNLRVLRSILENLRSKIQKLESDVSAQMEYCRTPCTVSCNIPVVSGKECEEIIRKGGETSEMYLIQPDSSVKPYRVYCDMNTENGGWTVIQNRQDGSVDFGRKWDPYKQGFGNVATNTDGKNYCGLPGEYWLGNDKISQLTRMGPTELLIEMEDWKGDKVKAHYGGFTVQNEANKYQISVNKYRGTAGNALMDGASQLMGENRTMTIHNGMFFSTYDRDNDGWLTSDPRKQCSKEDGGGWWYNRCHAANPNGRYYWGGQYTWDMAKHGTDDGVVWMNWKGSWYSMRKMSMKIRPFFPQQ
T5 sequence (looked up) 3: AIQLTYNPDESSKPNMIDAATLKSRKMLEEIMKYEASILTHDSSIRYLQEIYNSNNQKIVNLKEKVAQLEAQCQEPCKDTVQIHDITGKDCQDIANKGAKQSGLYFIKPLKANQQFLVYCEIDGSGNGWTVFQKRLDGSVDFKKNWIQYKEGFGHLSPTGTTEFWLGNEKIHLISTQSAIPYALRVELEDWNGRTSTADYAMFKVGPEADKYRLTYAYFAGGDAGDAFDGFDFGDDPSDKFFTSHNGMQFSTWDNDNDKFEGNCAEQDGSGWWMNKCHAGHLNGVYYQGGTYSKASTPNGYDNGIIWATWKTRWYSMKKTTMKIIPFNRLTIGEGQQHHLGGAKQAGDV
Experimental: as §1

[6] = target: T6, Fibrinogen Fragment X (human, UniProt P02671 20-238; P02675 73-491; P02679 27-437, limits assumed); assay: as above
T6 construct: domain: Fibrinogen Fragment X; Made in-house by digesting purified human fibrinogen with plasmin, then purified by SEC; also called X (Fibrinogen)
T6 sequence (looked up) 1: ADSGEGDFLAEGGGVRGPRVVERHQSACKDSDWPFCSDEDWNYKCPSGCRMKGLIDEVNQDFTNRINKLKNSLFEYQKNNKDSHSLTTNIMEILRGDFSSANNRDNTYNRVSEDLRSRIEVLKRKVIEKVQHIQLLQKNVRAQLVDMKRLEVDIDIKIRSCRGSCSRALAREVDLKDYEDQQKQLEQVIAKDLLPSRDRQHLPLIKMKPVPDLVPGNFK
T6 sequence (looked up) 2: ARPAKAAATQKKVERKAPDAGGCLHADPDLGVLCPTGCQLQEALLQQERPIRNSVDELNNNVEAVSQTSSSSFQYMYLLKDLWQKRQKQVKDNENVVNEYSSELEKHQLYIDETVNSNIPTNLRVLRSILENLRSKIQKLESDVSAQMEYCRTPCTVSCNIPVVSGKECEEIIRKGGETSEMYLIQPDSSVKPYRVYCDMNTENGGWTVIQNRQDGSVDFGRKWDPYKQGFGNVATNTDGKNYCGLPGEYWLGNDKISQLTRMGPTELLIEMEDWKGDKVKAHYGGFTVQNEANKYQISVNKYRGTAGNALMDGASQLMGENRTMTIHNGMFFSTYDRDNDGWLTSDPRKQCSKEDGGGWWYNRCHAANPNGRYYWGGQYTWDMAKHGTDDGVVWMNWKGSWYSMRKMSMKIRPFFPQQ
T6 sequence (looked up) 3: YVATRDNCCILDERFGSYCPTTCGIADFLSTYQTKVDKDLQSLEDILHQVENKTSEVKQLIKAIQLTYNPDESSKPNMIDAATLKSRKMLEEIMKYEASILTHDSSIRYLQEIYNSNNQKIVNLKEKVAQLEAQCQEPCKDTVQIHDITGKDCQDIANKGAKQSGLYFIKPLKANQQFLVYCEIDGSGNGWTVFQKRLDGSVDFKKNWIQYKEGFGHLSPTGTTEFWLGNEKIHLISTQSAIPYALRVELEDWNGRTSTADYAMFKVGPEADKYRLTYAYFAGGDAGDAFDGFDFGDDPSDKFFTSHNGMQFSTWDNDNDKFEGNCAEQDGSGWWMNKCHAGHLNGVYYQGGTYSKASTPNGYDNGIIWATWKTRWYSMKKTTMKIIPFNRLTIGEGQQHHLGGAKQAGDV
Experimental: as §1

binding result [1]: no binding
binding result [2]: no binding
binding result [3]: no binding
KD [4]: ≥ 10 nM
KD [5]: ≥ 10 nM
KD [6]: ≥ 10 nM
B1: recombinant antibody #12 (antibody, V domains shown)
VH: QVQLQQPGAEVVRPGASVKLSCKASGYSFTSYWIHWLKQGPHQGLEWIGRIDPDDSETHYNQKFKDKALLTVDKSSSTAYMQLRSLTSEDSAVYYCARTNWDAWFAYWGQGTLVTVSA
VL: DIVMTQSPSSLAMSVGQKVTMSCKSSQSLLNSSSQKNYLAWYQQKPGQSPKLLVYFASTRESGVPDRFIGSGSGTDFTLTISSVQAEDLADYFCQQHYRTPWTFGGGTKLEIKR
notes: The heavy chain is truncated after the murine IgG2a hinge and has no Fc; also called Ab#12; Ab#12 (Grifols)

Source: patent US20230082465A1 (Hoffmann-La Roche, published 2023)
